# B1: rhIL-22BP-ABD (recombinant human IL-22 binding protein fused to the albumin-binding domain ABD) (other)
# chain: TQSTHESLKPQRVQFQSRNFHNILQWQPGRALTGNSSVYFVQYKIYGQRQWKNKEDCWGTQELSCDLTSETSDIQEPYYGRVRAASAGSYSEWSMTPRFTPWWETKIDPPVMNITQVNGSLLVILHAPNLPYRYQKEKNVSIEDYYELLYRVFIINNSLEKEQKVYEGAHRAVEIEALTPHSSYCVVAEIYQPMLDRRSQRSEERCVEIPLAEAKVLANRELDKYGVSDYYKNLINNAKTVEGVKALIDEILAALP
# Target: human serum albumin (human, UniProt P02768 25-609)
# Assay: BLI
binder,measurement,value
B1,Kd,1150 nM
